According to patent publication US20040259075A1 (US Dept. of Health and Human Services, published 2004):

Columns and labels:
gp120 89.6 [1] = biological target: T1, gp120 89.6 (HIV-1 89.6, UniProt Q73372 32-508); test: ELISA, antigen coated, Langmuir isotherm fit (FIG. 2 legend)
T1 construct: domain: gp120

[2] = biological target: T2, protein G cross-linked to Sepharose beads; test: binding to protein G cross-linked to Sepharose beads; method not stated
T2 construct: also called protein G beads; Protein G-Sepharose beads

sCD4-gp120 89.6 complex = biological target: T3, sCD4-gp120 89.6 complex (HIV-1 89.6, UniProt Q73372 32-508; P01730 26-208); test: ELISA, antigen coated, Langmuir isotherm fit (FIG. 2)
T3 construct: domain: gp120;domain: two-domain soluble CD4 (D1D2)

gp120 89.6 [3] = biological target: T1, gp120 89.6; test: as above
gp120JRFL+sCD4 complex = biological target: T4, gp120JRFL+sCD4 complex (HIV-1 JRFL); test: ELISA, antigen coated (FIG. 1)
T4 construct: domain: gp120;domain: two-domain soluble CD4 (D1D2)

gp120 JRFL = gp120 JRFL (HIV-1 JRFL, UniProt P20871 32-503); test: ELISA, antigen coated (FIG. 1)
[4] = biological target: T5, gp120-CD4-CCR5 complex (JRFL gp120) used for the X5 selection (HIV-1 JRFL); test: binding to the complex used for selection; method not stated
[5] = biological target: T2, protein G cross-linked to Sepharose …; test: effective affinity of phage for beads; reference is the gp120-CD4-CCR5 complex
[6] = biological target: T5, gp120-CD4-CCR5 complex (JRFL gp120) …; test: effective affinity of phage for the bead-bound complex; method not stated
[7] = biological target: T2, protein G cross-linked to Sepharose …; test: effective affinity of phage for protein G beads; method not stated

B1: X5 Fab (Fab)
heavy: EVQLLEQSGAEVKKPGSSVQVSCKASGGTFSMYGFNWVRQAPGHGLEWMGGIIPIFGTSNYAQKFRGRVTFTADQATSTAYMELTNLRSDDTAVYYCARDFGPDWEDGDSYDGSGRGFFDFWGQGTLVTVSSASTKGPSVFPLAPSSKSTSGGTAALGCLVKDYFPEPVTVSWNSGALTSGVHTFPAVLQSSGLYSLSSVVTVPSSSLGTQTYICNVNHKPSNTKVDKKVEPKSCDKTS
light: AELVLTQSPGTLSLSAGERATLSCRASQSVSSGSLAWYQQKPGQAPRLLIYGASTRATGIPDRFSGSGSGTDFTLTIGRLEPEDLAVYYCQQYGTSPYTFGQGTKLEIKRTVAAPSVFIFPPSDEQLKSGTASVVCLLNNFYPREAKVQWKVDNALQSGNSQESVTEHDSRDSTYSLGSTLTLSKADYEKHKVYACEVTHQGLSSPVTKSFNRGEC
notes: also called Fab X5; antibody Fab fragment X5
Q: B1 was tested. Which Kd (gp120 89.6 [1]) did it give?
A: The Kd was 9.3 nM.

Q: What about the Kd [2] of the same binder?
A: Its Kd is 15 nM.

Q: What about the Kd (sCD4-gp120 89.6 complex) of the same binder?
A: The Kd was 1 nM.

Q: What about the Kd (gp120 89.6 [3]) of the same binder?
A: Its Kd is 9.4 nM.

Q: And the Kd (gp120JRFL+sCD4 complex)?
A: Its Kd is 2 nM.

Q: And the Kd (gp120 JRFL)?
A: The Kd was 10 nM.

Q: And the Kd [4]?
A: Its Kd is 1 nM.

B2: Phage-displayed X5 (Fab)
heavy: EVQLLEQSGAEVKKPGSSVQVSCKASGGTFSMYGFNWVRQAPGHGLEWMGGIIPIFGTSNYAQKFRGRVTFTADQATSTAYMELTNLRSDDTAVYYCARDFGPDWEDGDSYDGSGRGFFDFWGQGTLVTVSSASTKGPSVFPLAPSSKSTSGGTAALGCLVKDYFPEPVTVSWNSGALTSGVHTFPAVLQSSGLYSLSSVVTVPSSSLGTQTYICNVNHKPSNTKVDKKVEPKSCDKTS
light: AELVLTQSPGTLSLSAGERATLSCRASQSVSSGSLAWYQQKPGQAPRLLIYGASTRATGIPDRFSGSGSGTDFTLTIGRLEPEDLAVYYCQQYGTSPYTFGQGTKLEIKRTVAAPSVFIFPPSDEQLKSGTASVVCLLNNFYPREAKVQWKVDNALQSGNSQESVTEHDSRDSTYSLGSTLTLSKADYEKHKVYACEVTHQGLSSPVTKSFNRGEC
notes: also called phage X5; not shown: phage gene III fragment of the phagemid
Q: What does the source list for B2?
A: fold lower effective affinity than for the gp120-CD4-CCR5 complex [5]: 15 fold; Kd [6]: 0.09 nM; Kd [7]: 1.4 nM
